In this experiment the target is T1, Human KLHDC2 (kelch domain, amino acids 1–362) (human, UniProt Q9Y2U9 1-362, biotin (biotinylated with BirA enzyme)).
T1 sequence: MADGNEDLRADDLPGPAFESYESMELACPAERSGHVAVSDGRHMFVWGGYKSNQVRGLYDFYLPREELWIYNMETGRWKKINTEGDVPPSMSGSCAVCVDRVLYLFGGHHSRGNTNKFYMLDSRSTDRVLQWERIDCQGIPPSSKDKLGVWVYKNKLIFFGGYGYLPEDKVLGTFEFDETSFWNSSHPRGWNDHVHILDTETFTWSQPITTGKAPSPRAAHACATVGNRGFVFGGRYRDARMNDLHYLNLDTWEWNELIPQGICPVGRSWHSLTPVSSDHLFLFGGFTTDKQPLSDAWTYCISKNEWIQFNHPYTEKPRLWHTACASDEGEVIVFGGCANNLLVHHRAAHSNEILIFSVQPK
Nature of the experiment: fluorescence polarisation. For orientation: Fluorescence polarisation rises when a labelled molecule tumbles more slowly, as on binding a larger partner.

The source of these data is publication PMC12139779 (bioRxiv, 2025).

B1: SelK 8-mer (SPPPMAGG) (peptide)
peptide: SPPPMAGG
Regarding B1, the binding result was “binds”.
